Test results as given in the DeepSol protein solubility set.

Test: soluble on expression in E. coli; label from the status in PepcDB or PDB records

Sequence | soluble on expression in E. coli
GMDPKHGNLFADVPVGAPDEIFQPLLERKGLKIERIISNGQASPPGFWYDSPQDEWVMVVSGSAGIECEGDTAPRVMRPGDWLHVPAHCRHRVAWTDGGEPTVWLAVHCDAA | soluble
MAVRIVTDSSSGLPAEIAEELGITVVDLHLVASENQVSTAGLSALELTAAYARQLERGGDAGVVALHLSKELSSTWSAAHTAAAVFDGTVDVVDTQSVGMCVGAAAMAAARLAQGGASLRECADMARDTLRRSETWLYLHRMEEMRRSGRITTATAVVSAALATKPIMQLRGGHVELAVKTRTQSKAFARLVAVISDRCAGEPAFVAIQHHQALEAAHSLQSQLTAALPKGSSFMIMDMDQALSVHCGVGALGISVVFSSYSDTAPIDLSTTS | not soluble
MSLANDDLQQRLDKGMYGTPLVNPEEQHKYMGTFRERCRLSMTVAEMKDAQNQKHLLEELAKHPEVTVLLNGEISSDLQSTYIKLLNQHGANFKIVNNFVENNPDSLGLLLAEKHAVDEPVIDVTEKYPQATETPKEEPTAKKSFWQKLFHSEGHHHHHH | soluble
MGSDKIHHHHHHMGDVTVKDYKGGTIEDPEELKSNQTILTIDQAKYFNFKVDDVDKAQSNILLVDKGMGRASYAVQDVIDKFIAALVKDAKIKIGSTSKPIEITVANAYDTLVDLGVELDNKNVPRVGRFAILPPFYLGLLSKDPRFTKDFKILENGVVEGATVSGFKLMMSNNVPFSANNYSIMAGTDMAISYAGQVTEIEAYRPEKSFSDAMKGLYVFGAKVVQPDCLACLTVKQKVAEV | not soluble
MSLEKTKLPWDEFFSLNKDINHTYFTPEDFSGDEDLIAKTTEQFVKQEIVPQMENIEQHNYKVSRQLFEKAGELGLLGIEVPEDYGGFELGKAVSGLVAEKMGYAGAFSVSFNIHAGVGTLPYIYYGTKEQKEKYLPKIASGEWIGAYALTEPNAGSDALSAKTSAVLNEEGTAWKLNGEKQWITNAHMADVYVVFAKTNKGMTAFIVERTCEGVSIGLEEKKMGIKGSSTATLILEDVVIPAENVLGEVGKGHHVALNILNFARLKLAFGNIGTAKQAIGLSVQYGKERKQFQTELVDFTMIQEKIANMIIATYGAESAAYRTAGVIDEAIHESDEDLMKKMSQFAIECALNKVNASETLAYIVDEAVQIHGGYGYMQEYEVERLYRDARISRIFEGTNEINRLTVAKMLMKQIEQLEEGHHHHHH | not soluble
MLCFFDPGNFDIGDSVNDVEVKFNRAWTSVIGTKIDFAEKYSINIEGYYKYVFDRGYITADTSTGTITPSFNFDGVGKVWGFDIQLQKLESRYWDGWISYTYTWAKYNDPSGGNNGISNGSTNTINDSWYYPSFHRFHNFNLVLNIKPLLWFNIALRFGFASGQPRRRIDNKIYPYPVLIVNEDNEMVILQKYRRNSWYDENERTPWSFPLDIKFSFFPVNKNGRTSMEIYAAGENMMSLFYSPPGRTTFNQYTGKEDQGSSSGSFDLPIPMVSFGIKWRY | not soluble
IKELKMSKDEIKREYKEMEGSPEIKSKRRQFHQEIQSRNMRENVKRSSVVVAAATHIAIGILYKRGETPLPLVTFKYTDAQVQTVRKIAEEEGVPILQRIPLARALYWDALVDHYIPAEQIEATAEVLRWLERQNIEKQHSEML | soluble
IFEDEEDQITKVDSLKKEGNNFFANGEFEKANEKYQEAIASCPPTSTEVQSILLSNSAAALIKLRKWESAVEAASKSIEIGATNEKALERRAFAYSNMSEKYENSIEDYKQLQESLPKRRVELDRKIAEINEKINNRNEAMKADVMEKLKGFGNFCLSPFGLSTDSFEMVPNGNGGFSVQMKGATNKQEGAS | not soluble
MHVLDLFKIEGKTAIVTGGGRGLGEQIAVGLAEAGANVVVCSRKVEACEQVKEKLEQLGVRSLALRCDVTNPEEVKHVVETTVKEFGGIDILVNNSGATWGAPVEEMPLEAWQKVINVNVTGTFLMSQAVGKVMIAKQTGGSIINIASVAGLGGTHPDILNTIGYNTSKGAVITFTRDLAAKWGKHGIRVNAVAPGFFPTKMSKVVLERVGKKVLEHTPLGRFGGEDDLKGAVLFLASPASAFVTGALLVVDGGSHATGI | soluble
MGSDKIHHHHHHVLADSTGHGLSAAMPIMRVASTFRAMVSKGFSLATLIYELNSKVHRENPDDRFVACIVLEVDFYRKKIHIWNGGMPPVYIKNHLETETVSDHYPVKNIIKFKSTNMALGILPSQTFVADIATVDLPVVGHACLFSDGLIEQYTNENKPFGIETLNSLFIQYASELIPYLTENFKKVFDGKPITDDITVCTLDFERLNEWHQQNNICLARSNMDGEFDWEVKLAGPMLLSAEYLNSLNQFLGMFGFATSFCQRVFTVVAELFSNAIDHGVLKLDSRLKSDPDGFELYHSIRDSSSARLTMNDWVKVSLVWCSITNELHICVADSGQGFKGYKNTVVDIPQLSGRGLSLVKTLSKTYELVSPGNITKVIME | not soluble
MLLLLTFIESPIAGIPEIRKHNCLVLPHIFVCLVITKSFGRVVTSGAAVTKRAAGYFGYLAHCAADETTWYACEQFVIGHARKAVTHFIYLA | not soluble
MIKLTVSHHKLTASGHALFAKKGQDIVCAAVSGIIFGALPWFETNSIAVQEDATVPSLSLELVQPTAKLITGLSVVIMQLKTLAHSYPQFISFEDQRKDE | soluble
GMPENTAMAALLPEESLFFRELVKQWRAQDSYGTWEKKSDMELLAPYVLDKEQRRAIPIIGDPDPEILWRVELFYNAVGLATERASGVMVSPMMKMSHEGFGRMVLIAGRLIVVNKQLRDVHRFGFPSMEKLAEEGDKLVAGALEMIEKFPEVARF | soluble
MSLENHWYEVKQTQSEGFFKDLNGSRTKESISYFPKIYYRMKDGLLSIRVQISLGKYQDQLLKLEKKLESGLYCELVEKELKDSYVDYTLLYDMIANRIGIEEAVVENGALRLMKNQVWAYDFLPHMLIAGGTGGGKTYFLLTIIEALLKSDAELFILDPKNADLADLGTIMTHVYSQKEQISACVEDFYERMMVRSRLMKEMPNYKTGENYAYLGLSPNFLVFDEYVAYMEMLTTKESAVILNKLKQIVMLGRQSGFFLILACQRPDAKYLGDGIRDQFNFRVALGRMSELGYSMMFGEVDKIFFMKQIKGRGYVDTGGGVVSEFYTPLVPKGYDFLESTKTIVQNNINEGHHHHHH | soluble
MARKKTITKEQILTAAYEVVATEGFSKFTARNIANKMKCSTQPIYLEFKNMDDLRDALFQKIHKYLAKEVFPVKHTGNTIVDLALNYIHFATSESKLYRALYLEEYGGGKKMQEFSYHYFTEAVKADPEYANLNDVQIDSLHMGTWVVATGVAALMTSGIIHPSEEQIIHLMKDSIEAILERDEPIDIDL | soluble
MFLPKFNPIRSFSPILRAKTLLRYQNRMYLSTEIRKAIEDAIESAPVVLFMKGTPEFPKCGFSRATIGLLGNQGVDPAKFAAYNVLEDPELREGIKEFSEWPTIPQLYVNKEFIGGCDVITSMARSGELADLLEEAQALVPEEEEETKDR | soluble
MSLDTDSGENNKDSSIPQGGVTVSPEVLAHRPLIEKYGKEYGIEDYVSYILAIMQVESGGTAEDVMQSSESLGLPPNSLSTEESIKQGVKYFSELLTSAEQQGVDIDSVIQSYNYGGGFLNYVRSHGKKYTYELAEQFSKEKSGGQKADYPNPIAIPVNGGWRYNYGNQFYVQLVSQYLTDTSPTEFDDETVQVIMDEALKYEGFPYVFGGASPTTSFDCSGLIQWVYDKAGISLPRVAQDQYDATQEISMEEAQAGDLIFFHSTYNAGTYVTHVAIYLEGNRFYHAGDPIGYGDLSSRYWQDHLIGARRVIHNEGHHHHHH | soluble
MGSDKIHHHHHHVSQLSPWQHYQQDLKRDDFSHDLAQEQAVTALQRVYEELIAATKPASGIAALLKAVTGKNKRASVQGLYLWGGVGRGKTYLMDTFFDALPTEDKLRAHFHRFMHQLHHDLGELKGVQDPLLTIAKKMAKQYQVICFDEFFVSDITDAMLLGTLFQALFKEGVVLVATSNIIPDELYKNGLQRARFLPAIALINQHCQILNVDSGIDYRLRTLEQAEIYHHPLDAQADVNLLQYFKQLAPESEVFTHALDIDGRKIAIRQQSQGVLLVDFRALCDGPRSQRDYMEIARLYHTVLLSGLVQMGAQQTGDDIARRFLAVVDEFYERNVKLIISAQVSLEQIYTQGQLDFEFRRCRSRLIEMQSHDYLALEHLP | not soluble
MSGEKIDITPKKDGGVLKLIKKEGQGVVKPTTGTTVKVHYVGTLENGTKFDSSRDRGDQFSFNLGRGNVIKGWDLGVATMTKGEVAEFTIRSDYGYGDAGSPPKIPGGATLIFEVELFEWSAEDISPDRDGTILRTIIVEGSKNSFPNDTSKVLAHCVGTYQGTEFYNREVNFHIGEGSEEGLPEGVERALRRFQLGEKSKIEIRGHKYTYGNSPPAGSNIPVNATLEFTIFLKEFEKVPATWEMTAEEKLDAAKQAKDRGTMYLQKGNLKLAYNKYKRAEEVLEYEKSTDPEKMAERETILNGAYLNLSLVCSKQNEQLECIKWCDKVLETKPGNVKALYRKATALLTMNEVRDAMKLFEKIVEVEPENKAAAQQIIVCRNTIREQNERDKKRFKNLFAKISTEEDKPTNTVEDEDEIVASTSGSSTSNA | soluble
MDVSQWEQFAKHRSAVIRDYGMWIGLMDNNMEPIVDMPAPVSIDAPITRMTPSSCKAVFKTRVDGHIHPMVDYLIAENLAKVDEQGQLIAAAQDAVFLAIEVAQGIRNVYKGVFTVALGDQESPTLLEFNGVCEIQWTLGALPCPSAPYSWTGKWVDLNQDWAGKWSKTRTMADIKVAEVADGFTLSGAADTTIGKLISQSLQAINTMLKSKGRSLPIAVKPVTSNPTSPQLVIRPTDRFIWDEISDLALAAGVTVKCKTWWPSDPPVPGLDLKEPIVVIEITQEE | not soluble
MGSDKIHHHHHHMVRLAVVGLGKMGLSHYAMINAHPDVKVEAVCDSTGYVLDVLNKYTGVRTYTDFDVMLRDIELDAVIIATPSRSHGQMVEVALNENLHVFCEKPFCLDITEGERLARIAAERGLVNQVGYHNRFVGAFQEVKRLLDAGAIGAVTHVLAEAYGPVVLKPKGSTWRTQRTEGGGCLYDYAAHPINLVNWYLGAPQSVGGSVLNKIFSKDTEDEVFSTLYYEEGKSVQISVNWSDESYRKMTTKVTIWGTQGRIYADRQECQVYIRDGVNIPAGYQRGWNVRYTTDLTEAVWFYLRGEEYSAQLDYFVRCIEEKEGGGNINSFEEAVITDRVMSMMVADAEKRPPVTSGIAPRQAPGKKFGLLFGGRKAVS | not soluble
MSETRRNQSSDEQIEKSEIQHQRVVIENSHGEKLVGVLHDTGSTETVVICHGFRSSKNRIPMLTIASFFERAMISSFRFDFAGNGESQGSFQYGNYRREVEDLRSVLQHLRGVNRVISAIIGHSKGGNVVLLYAAKYNDVQTVVNISGRFFLDRGIEFRLGKDYFKRIKDNGFIDVSNRKGKFEYRVTEESLMDRLTTNAHEACLSIRENCRVLTVHGSNDRIVHVTEASEFAKQIKNHKLYVIEGADHEFTSHQHQLASIVLSFFKLDPKKDDESGDISTSNQDSMRSVVPITSRI | soluble
MGSDKIHHHHHHMAKEKKSRDTQKKIFVLDTSVIIYDHNAVKNFEEHDLAIPITVLEELDNFKKGNDIKNFEAREFTRFLDELAADSASLQDWIQLEGRDKGKLKVIMNTHGTKETDAEKIFDDRKNDHKILNAAISVQAENPDKKVILVSKDINLRLKAKSLNIPSEDYNTGKVKDIDLLYTGHTTIENVAPEKINELYEKGYCDIDAIPEQDVSKNHYYILKSVKSSALAYYNPVDKRLEHVGKTPAYGIKPRNAEQAFAIHAVLDPHIKLVSIQGVAGTGKTLIALAATLEQRKDFKQIFLARPIVPLSNKDIGYLPGDIKSKLNPYMEPLFDNLKFIQNQFNETDQDYQRITDMVNKEKLVITPLAYIRGRSLSNIVFIVDEAQNLTPHEVKTIISRAGENCKIIFTGDIFQIDTPYLDSESNGLSYLIDRLKNQDLYAHITLEKGERSELANLANELL | not soluble
